Results as given in patent US6617306B2, “Carrier for in vivo delivery of a therapeutic agent” (priority 1998, dated 2003).
Side chains are listed from the residue outwards. * marks the point of attachment. Biotin = O=C1N[C@H]2[C@H](CS[C@H]2CCCCC(=O)*)N1; cysteamine‑PEG/Lys copolymer = not defined here; PEG/Lys copolymer = not defined here

What was measured:
[1] = Release of peptide from PEG/Lys carrier by reductive cleavage of the disulfide linkage with glutathione; format: physicochemical; conditions: for half-time of release of peptide from carrier: 3 mM glutathione in PBS (pH 7.4), room temperature, cysteamine thiol linker
Protocol: The disulfide linked conjugate, PEG-cysteamine-N-acetyl-Phe-Arg-Arg-Arg-Cys-NH2 (SEQ ID NO:9) was added to a solution of reduced glutathione (3 mM in PBS) to a final peptide concentration of 0.3 mM, and then incubated under N2 at room temperature. A sample was taken at each time point, acidified by adding an aliquot of 5% TFA and applied to a G-75 column in 0.1% TFA (7 ml bed volume) to separate PEG-conjugated peptide from free peptide. Appropriate fractions in the high-molecular-weight region were pooled, and the extent of peptide derivatization at each time point was determined by amino acid analysis. For measuring the release of radiolabeled peptide, each time point aliquot was acidified to pH 3.5 with sulfuric acid. The PEG-conjugated peptide and the free peptide were then separated using ultrafiltration on “CENTRICON-10”. To ensure complete separation, the retentate was diluted and ultrafiltered two more times. Radioactivity in the retentate and combined filtrate was quantitated by scintillation counting.
Release of the peptide, N-acetyl-Phe-Arg-Arg-Arg-Cys-NH2 (SEQ ID NO:9), by reductive cleavage of its disulfide linkage to a carrier of the present invention comprising a PEG/Lys copolymer was evaluated using 3 mM glutathione in PBS (pH 7.4) at room temperature. At each time point, an aliquot was withdrawn and acidified to halt the disulfide interchange reaction. Released peptide was removed from PEG/Lys-peptide conjugate by gel filtration chromatography, and the ratio of PEG (i.e. Lys residues) to peptide (i.e. Phe or Arg residues) was determined by amino acid analysis.
Release kinetics were also studied using the disulfide-linked radiolabeled peptides, N-acetyl-Arg-Lys-Lys-Arg-Arg-Gln-Arg-Arg-Arg-Cys-NH2 (SEQ ID NO:10) and N-acetyl-Arg-Lys-Lys-Arg-Arg-Gln-Arg-Arg-Arg-Lys-(biotin)-Cys-NH2 (SEQ ID NO:3). Released peptide was removed from PEG/Lys-peptide conjugate by ultrafiltration.
Analysis of the release rate of the radiolabeled peptide, N-acetyl-Arg-Lys-Lys-Arg-Arg-Gln-Arg-Arg-Arg-Lys-(biotin)-Cys-NH2 (SEQ ID NO:3) gave a half-time of about 40 min in the presence of 30 mM glutathione (FIG. 6). Since the disulfide cleavage rate is proportional to glutathione concentration^8, the sterically hindered linker has a release rate about 100 times slower than does a carrier of the present invention in which the thiol compound is cysteamine. Thus, the release rate can be readily controlled by selection of a thiol compound having functional groups, wherein the thiol compound is conjugated to the polymer, and conjugated via a disulfide bond to a therapeutic agent.

Tat binding to TAR RNA = test: TAR-CAT / Tat plasmid transfected Jurkat cells, CAT protein by immunoassay; format: cell-based, HIV-1; conditions: inhibitor added at 18 h, CAT measured at 42 h
Protocol: FIG. 7 is a graph of the comparison of the inhibition of protein expression in a Jurkat cell line transfected with a TAR-CAT (TAR-Chloramphenicol Acetyl Transferase) plasmid and a Tat-protein plasmid. In this experiment, one group of cells was administered a Tat inhibitory biotinylated polypeptide derivative having a sequence of N-acetyl-Arg-Lys-Lys-Arg-Arg-Gln-Arg-Arg-Arg-Lys-(biotin)-Cys-NH2 (SEQ ID NO:3), and another group of cells was administered the same Tat inhibitory biotinylated peptide derivative conjugated to a carrier of the present invention via a disulfide bond between the sulfur atom of the thiol group of the thiol compound, and the thiol group of the Cys residue located between biotin and the amino group of the Tat inhibitory biotinylated polypeptide derivative of SEQ ID NO:3. […] Cysteamine was the thiol compound conjugated to the polymer. Conjugation of cysteamine to the polymer involved the carboxylic acid group of the lysine incorporated into the copolymer, which was available for reaction. If the polypeptide was successful in inhibiting Tat binding to TAR, CAT […]. […]
Initially, a Jurkat cell line was stably transfected with a TAR-CAT plasmid. […] At t=42 hours, the cells were harvested and CAT protein was measured by immunoassay. […]

Row | Substance | half-time of release of radiolabeled peptide from carrier ([1]; 30 mM glutathione in PBS, sterically hindered linker 1-amino-2-methyl-2-propanethiol) | release rate, times slower than carrier with cysteamine ([1]; cleavage rate taken as proportional to glutathione concentration) | half-time of release of peptide from carrier [1] | increase in potency relative to biotinylated Tat-peptide inhibitor administered alone (Tat binding to TAR RNA)
1 | PEG-1-amino-2-methyl-2-propanethiol-SEQ ID NO:3: radiolabeled SEQ ID NO:3 peptide disulfide-linked to PEG/Lys derivative of sterically hindered 1-amino-2-methyl-2-propanethiol (Ac-RKKRRQRRRK(Biotin)C-NH2; not fully specified (residue 11); printed as N-acetyl-Arg-Lys-Lys-Arg-Arg-Gln-Arg-Arg-Arg-Lys-(biotin)-Cys-NH2; also: acetyl group tritium-labelled, Cys11 disulfide-linked to PEG/Lys carrier bearing 1-amino-2-methyl-2-propanethiol) | about 40 min | about 100 times |  | 
2 | PEG-cysteamine-N-acetyl-Phe-Arg-Arg-Arg-Cys-NH2 (Ac-FRRRC(cysteamine‑PEG/Lys copolymer)-NH2; reading uncertain; also: Cys disulfide-linked to PEG/Lys cysteamine carrier, printed as PEG-cysteamine-N-acetyl-Phe-Arg-Arg-Arg-Cys-NH2) [PEG-cysteamine-SEQ ID NO:9] |  |  | about 3 minutes | 
3 | PEG-cysteamine-SEQ ID NO:3: SEQ ID NO:3 peptide disulfide-linked via its Cys to the cysteamine-PEG carrier (PEG/lysine copolymer, about 27,000 D) (Ac-RKKRRQRRRKC([cysteamine (disulfide)-PEG/Lys copolymer])-NH2; reading uncertain; also: Lys(biotin), position not given here) |  |  | about 3 minutes | about 5 fold
4 | PEG-cysteamine-SEQ ID NO:10: radiolabeled SEQ ID NO:10 peptide disulfide-linked to PEG/Lys copolymer through cysteamine (Ac-RKKRRQRRRC-NH2; not fully specified (residue 10); printed as N-acetyl-Arg-Lys-Lys-Arg-Arg-Gln-Arg-Arg-Arg-Cys-NH2; also: radiolabel) |  |  | about 3 minutes | 
